Our source for the self-cleavage values is the RNAGym collection of RNA variant scans (doi:10.7554/elife.90254).

The chains are these.
B1: OR4K15 (parent)
chain: GUUAACGGUCAUAGGCCAUGGAAACUAGGAGCACCAUUUCGCUGCCAGUGAAGAAAUGAACAAAGAAAAUCUGGGCCAGGCAGGCAUCAAAAGAAAUAGUCUUGCGCUCAACCAGAAAGUCUGUAAUCAUUUUAAGGGUA

This series covers variants of B1. Description: self-cleavage, relative activity (ratio to wild type); higher = more cleavage; in vitro, sequencing; the parent is a self-cleaving ribozyme.
On to GUUAACGGUCAUAGGCCAUGGAAACGAGGAGCACCAUUUCGCUGCCAGUGAAGAAAUGAACGAAGAAAAUCUGGGCCAGGCAGGCAUCAAAAGAAAUAGUCUUGCGCUCAACCAGAAAGUCUGUAAUCAUUUUAAGGGUA [U26G A62G], for which the self-cleavage came to 1.02.
Regarding GUUAACGGUCAUAGGCCAUGGAAACUGGGAGCACCAUUUCGCUGCCAGUGAAGAAAUGAACAGAGAAAAUCUGGGCCAGGCAGGCAUCAAAAGAAAUAGUCUUGCGCUCAACCAGAAAGUCUGUAAUCAUUUUAAGGGUA [A27G A63G], the self-cleavage was 1.49.
The figure for GUUAACGGUCAUAGGCCAUGGAAACUGGGAGCACCAUUUCGCUGCCAGUGAAGUAAUGAACAAAGAAAAUCUGGGCCAGGCAGGCAUCAAAAGAAAUAGUCUUGCGCUCAACCAGAAAGUCUGUAAUCAUUUUAAGGGUA [A27G A54U] is 1.03; for GUUAACGGUCAUAGGCCAUGGAAACUGGGAGCACCAUUUCGCUGCCAGUGAAGAAAUGAACAAAGAAAAUCUGGGCCGGGCAGGCAUCAAAAGAAAUAGUCUUGCGCUCAACCAGAAAGUCUGUAAUCAUUUUAAGGGUA [A27G A78G] it is 0.3.
The same measure for GUUAACGGUCAUAGGCCAUGGAAACUGGGAGCACCAUUUCGCUGCCAGUGAAGAAAUGAACAAAGAAAAUCUGGGCCAGGCAGGCAUCAAAUGAAAUAGUCUUGCGCUCAACCAGAAAGUCUGUAAUCAUUUUAAGGGUA [A27G A92U]: 1.07.
The same measure for GUUAACGGUCAUAGGCCAUGGAAACUGGGAGCACCAUUUCGCUGCCAGUGAAGAAAUGAACAAAGAAAAUCUGGGCCAGGCAGGCAUCAAAGGAAAUAGUCUUGCGCUCAACCAGAAAGUCUGUAAUCAUUUUAAGGGUA [A27G A92G]: 1.48; for GUUAACGGUCAUAGGCCAUGGAAACGAGGAGCACCAUUUCGCUGCCAGUGAAGAAAUGAACAAAGGAAAUCUGGGCCAGGCAGGCAUCAAAAGAAAUAGUCUUGCGCUCAACCAGAAAGUCUGUAAUCAUUUUAAGGGUA [U26G A66G]: 1.09; for GUUAACGGUCAUAGGCCAUGGAAACUCGGAGCACCAUUUCGCUGCCAGUGAAGAAAUGAACAAAGAAAGUCUGGGCCAGGCAGGCAUCAAAAGAAAUAGUCUUGCGCUCAACCAGAAAGUCUGUAAUCAUUUUAAGGGUA [A27C A69G]: 1.34.
Take GUUAACGGUCAUAGGCCAUGGAAACUGGGAGCACCAUUUCGCUGCCAGUGAAGAAAUGAACAAAGAAAAUCUGGGCCAGGCAGGCAUCAAAAGGAAUAGUCUUGCGCUCAACCAGAAAGUCUGUAAUCAUUUUAAGGGUA [A27G A94G]: the self-cleavage stood at 1.48.
Turning to GUUAACGGUCAUAGGCCAUGGAAACUGGGAGCACCAUUUCGCUGCCAGUGAAGAAAUGAACAAAGAAAAUCUGGGCCAGGCAGGCAUCAAAAGAAAUAGUCUUGCGCUCAACCGGAAAGUCUGUAAUCAUUUUAAGGGUA [A27G A114G], the self-cleavage was 0.27.
The figure for GUUAACGGUCAUAGGCCAUGGAAACUGGGAGCACCAUUUCGCUGCCUGUGAAGAAAUGAACAAAGAAAAUCUGGGCCAGGCAGGCAUCAAAAGAAAUAGUCUUGCGCUCAACCAGAAAGUCUGUAAUCAUUUUAAGGGUA [A27G A47U] is 0.95; for GUUAACGGUCAUAGGCCAUGGAAACUGGGGGCACCAUUUCGCUGCCAGUGAAGAAAUGAACAAAGAAAAUCUGGGCCAGGCAGGCAUCAAAAGAAAUAGUCUUGCGCUCAACCAGAAAGUCUGUAAUCAUUUUAAGGGUA [A27G A30G] it is 0.69; for GUUAACGGUCAUAGGCCAUGGAAACUGGGAGCACCAUUUCGCUGCCAGUGAAGAAAUGAACAAAGAAAAUCUGGGCCAGGCAGGCGUCAAAAGAAAUAGUCUUGCGCUCAACCAGAAAGUCUGUAAUCAUUUUAAGGGUA [A27G A86G] it is 1.4.
As to GUUAACGGUCAUAGGCCAUGGAAACUGGGAGCACCAUUUCGCUGCCAGUGAAGAAAUGAACAAAGAAAAUCUGGGCCAGGCAGGCUUCAAAAGAAAUAGUCUUGCGCUCAACCAGAAAGUCUGUAAUCAUUUUAAGGGUA [A27G A86U], the self-cleavage was 1.34.
The figure for GUUAACGGUCAUAGGCCAUGGAAACUGGGAGCACCAUUUCGCUGCCAGUGAAGAAAUGAACAAAGAAGAUCUGGGCCAGGCAGGCAUCAAAAGAAAUAGUCUUGCGCUCAACCAGAAAGUCUGUAAUCAUUUUAAGGGUA [A27G A68G] is 1.13.
The same measure for GUUAACGGUCAUAGGCCAUGGAAACUGGGAGCACCAUUUCGCUGCCAGUGAAGAAAUGAACAAAGAAAAUCUGGGCCAGGCAGGCAUCAAAAGAAAUAGUCUUGCGCUCAACCAGGAAGUCUGUAAUCAUUUUAAGGGUA [A27G A116G]: 0.99; for GUUAACGGUCAUAGGCCAUGGAAACUGGGAGCGCCAUUUCGCUGCCAGUGAAGAAAUGAACAAAGAAAAUCUGGGCCAGGCAGGCAUCAAAAGAAAUAGUCUUGCGCUCAACCAGAAAGUCUGUAAUCAUUUUAAGGGUA [A27G A33G]: 0.96; for GUUAACGGUCAUAGGCCAUGGAAACUGGGAGCUCCAUUUCGCUGCCAGUGAAGAAAUGAACAAAGAAAAUCUGGGCCAGGCAGGCAUCAAAAGAAAUAGUCUUGCGCUCAACCAGAAAGUCUGUAAUCAUUUUAAGGGUA [A27G A33U]: 1.16.
The figure for GUUAACGGUCAUAGGCCAUGGAAACGAGGAGCACCAUUUCGCUGCCAGUGAAGAAAUGAACAAAGAAAAUCUGGGCCAGGCAGGCAUCAAAAGAAGUAGUCUUGCGCUCAACCAGAAAGUCUGUAAUCAUUUUAAGGGUA [U26G A96G] is 1.78; for GUUAACGGUCAUAGGCCAUGGAAACUGGGAGCACCAUUUCGCUGCCAGUGGAGAAAUGAACAAAGAAAAUCUGGGCCAGGCAGGCAUCAAAAGAAAUAGUCUUGCGCUCAACCAGAAAGUCUGUAAUCAUUUUAAGGGUA [A27G A51G] it is 1.3; for GUUAACGGUCAUAGGCCAUGGAAACGAGGAGCACCAUUUCGCUGCCAGUGAAGAAAUGAACAGAGAAAAUCUGGGCCAGGCAGGCAUCAAAAGAAAUAGUCUUGCGCUCAACCAGAAAGUCUGUAAUCAUUUUAAGGGUA [U26G A63G] it is 2.09.
Turning to GUUAACGGUCAUAGGCCAUGGAAACUGGGAGCACCAUUUCGCUGCCAGUGAAGAAAUGAACAAAGGAAAUCUGGGCCAGGCAGGCAUCAAAAGAAAUAGUCUUGCGCUCAACCAGAAAGUCUGUAAUCAUUUUAAGGGUA [A27G A66G], the self-cleavage worked out at 0.7.
The figure for GUUAACGGUCAUAGGCCAUGGAAACUCGGAGCUCCAUUUCGCUGCCAGUGAAGAAAUGAACAAAGAAAAUCUGGGCCAGGCAGGCAUCAAAAGAAAUAGUCUUGCGCUCAACCAGAAAGUCUGUAAUCAUUUUAAGGGUA [A27C A33U] is 2.06; for GUUAACGGUCAUAGGCCAUGGAAACUGGGAGCACCAUUUCGCUGCCAGUGACGAAAUGAACAAAGAAAAUCUGGGCCAGGCAGGCAUCAAAAGAAAUAGUCUUGCGCUCAACCAGAAAGUCUGUAAUCAUUUUAAGGGUA [A27G A52C] it is 1.41; for GUUAACGGUCAUAGGCCAUGGAAACUCGGAGCACCAUUUCGCUGCCAGUGAAGAAAUGAACAAAGAAAAUCUGGCCCAGGCAGGCAUCAAAAGAAAUAGUCUUGCGCUCAACCAGAAAGUCUGUAAUCAUUUUAAGGGUA [A27C G75C] it is 0.12.
The same measure for GUUAACGGUCAUAGGCCAUGGAAACUCGGAGCACCAUUUCGCUGCCAGUGAAGAAAUGAACAAAGAAAAUCUGGGCCAGGCAGGCAUCAAAAGAAAUAGUCUUGCGCUCAACCAGUAAGUCUGUAAUCAUUUUAAGGGUA [A27C A116U]: 0.23.
The same measure for GUUAACGGUCAUAGGCCAUGGAAACUCGGAGCACCAUUUCGCUGCCAGUGAAGAAAUGAACAAAGAUAAUCUGGGCCAGGCAGGCAUCAAAAGAAAUAGUCUUGCGCUCAACCAGAAAGUCUGUAAUCAUUUUAAGGGUA [A27C A67U]: 1.29.
For the variant GUUAACGGUCAUAGGCCAUGGAAACUGGGAGCACCAUUUCGCUGCCAGUGAAGAAAUGAACAAAGAAAAUCUGGGCCAGGCUGGCAUCAAAAGAAAUAGUCUUGCGCUCAACCAGAAAGUCUGUAAUCAUUUUAAGGGUA [A27G A82U], the self-cleavage came to 0.27.
As to GUUAACGGUCAUAGGCCAUGGAAACUGGGAGCACCAUUUCGCUGCCAGUGAAGAAAUGAACAAAGAAAAUCUGGGCCAGGCAGGCAUCAAAAGAAUUAGUCUUGCGCUCAACCAGAAAGUCUGUAAUCAUUUUAAGGGUA [A27G A96U], the self-cleavage is 1.83.
Take GUUAACGGUCAUAGGCCAUGGAAACUGGGAGCACCAUUUCGCUGCCAGUGAAGAAAUGAACAAAGAAAGUCUGGGCCAGGCAGGCAUCAAAAGAAAUAGUCUUGCGCUCAACCAGAAAGUCUGUAAUCAUUUUAAGGGUA [A27G A69G]: the self-cleavage worked out at 0.62.
The figure for GUUAACGGUCAUAGGCCAUGGAAACUGGGAGCACCAUUUCGCUGCCAGUGAAGAAAUGAACAAAGAGAAUCUGGGCCAGGCAGGCAUCAAAAGAAAUAGUCUUGCGCUCAACCAGAAAGUCUGUAAUCAUUUUAAGGGUA [A27G A67G] is 1.25; for GUUAACGGUCAUAGGCCAUGGAAACUCGGAGCACCAUUUCGCUGCCAGUGAAGAAAUGAACAAAGAAAAUCUGGGCCAGGCAGGCAACAAAAGAAAUAGUCUUGCGCUCAACCAGAAAGUCUGUAAUCAUUUUAAGGGUA [A27C U87A] it is 1.13.
For the variant GUUAACGGUCAUAGGCCAUGGAAACUGGGAGCACCAUUUCGCUGCCAGUGAAGAAAUGAGCAAAGAAAAUCUGGGCCAGGCAGGCAUCAAAAGAAAUAGUCUUGCGCUCAACCAGAAAGUCUGUAAUCAUUUUAAGGGUA [A27G A60G], the self-cleavage stood at 1.09.
The same measure for GUUAACGGUCAUAGGCCAUGGAAACUGGGAGCACCAUUUCGCUGCCAGUGAAGAAAUGAACAAAGAAAAUCUGGGCCAGGCAGGCAUCAUAAGAAAUAGUCUUGCGCUCAACCAGAAAGUCUGUAAUCAUUUUAAGGGUA [A27G A90U]: 1; for GUUAACGGUCAUAGGCCAUGGAAACUGGGAGCACCAUUUCGCUGCCAGUGAAGAAAUGAACAAAGAAAAUCUGGGCCAGGCAGGCAUCAAAAGAAAUAGUCUUGCGCUCAACCAGAAAGUCUGUAAUCUUUUUAAGGGUA [A27G A129U]: 0.72.
The same measure for GUUAACGGUCAUAGGCCAUGGAAACUGGGAGCACCAUUUCGCUGCCAGUGAAGAAAUGAACAAAGAAAAUCUGGGCCAGGCAGGCAUCAAAAGAUAUAGUCUUGCGCUCAACCAGAAAGUCUGUAAUCAUUUUAAGGGUA [A27G A95U]: 1.2; for GUUAACGGUCAUAGGCCAUGGAAACUGGGAGCACCAUUUCGCUGCCAGUGAAGAAAUGAACAAAGAAAAUCUGGGCCAGGCAGGCAUCAAAAGAAAUAGUCUUGCGCUCAGCCAGAAAGUCUGUAAUCAUUUUAAGGGUA [A27G A111G]: 0.03.
The same measure for GUUAACGGUCAUAGGCCAUGGAAACUCGGAGCACCAUUUCGCUGCCAGUGAAGAAAUGAACAAAGAAAAUCUGGGCCGGGCAGGCAUCAAAAGAAAUAGUCUUGCGCUCAACCAGAAAGUCUGUAAUCAUUUUAAGGGUA [A27C A78G]: 0.21.
Regarding GUUAACGGUCAUAGGCCAUGGAAACUGGGAGCACCGUUUCGCUGCCAGUGAAGAAAUGAACAAAGAAAAUCUGGGCCAGGCAGGCAUCAAAAGAAAUAGUCUUGCGCUCAACCAGAAAGUCUGUAAUCAUUUUAAGGGUA [A27G A36G], the self-cleavage is 1.26.
Turning to GUUAACGGUCAUAGGCCAUGGAAACGAGGAGCACCAUUUCGCUGCCAGUGACGAAAUGAACAAAGAAAAUCUGGGCCAGGCAGGCAUCAAAAGAAAUAGUCUUGCGCUCAACCAGAAAGUCUGUAAUCAUUUUAAGGGUA [U26G A52C], the self-cleavage came to 0.7.
The figure for GUUAACGGUCAUAGGCCAUGGAAACUGGGAGCACCAUUUCGCUGCCAGUGAAGAAAUGAACAAGGAAAAUCUGGGCCAGGCAGGCAUCAAAAGAAAUAGUCUUGCGCUCAACCAGAAAGUCUGUAAUCAUUUUAAGGGUA [A27G A64G] is 1.27.
